The Immune Epitope Database (IEDB)

The sequences below were run against HLA-A*02:01 (assay: IEDB peptide-MHC binding, purified MHC/competitive/radioactivity; ≥ and ≤ were set here for values at or beyond the usual limits of such assays). Conditions: source organism: Bordetella pertussis.

Sequence	IC50
EGGKLRGKD	≥ 78.1 µM
IIKDAPPGA	15.4 µM
IIQEFAADL	4.15 µM
TLSSAHGNV	48.6 µM
VKLGGVYEA	9.59 µM

Each sequence was assayed against HLA-B*07:02 in the same assay as above. Conditions: source organism: Bordetella pertussis.

Sequence	IC50
MPKAPELDL	21 µM
RPSVNGGRI	0.348 µM

These sequences were tested against HLA-B*35:01 in the same assay as above. Conditions: source organism: Bordetella pertussis.

Sequence	IC50
GEAMVLVYY	36.4 µM
ILAGALATY	4.29 µM
LAGSGLFRM	0.767 µM
MAPVMGACM	5 µM

Each sequence was assayed against HLA-B*44:03 in the same assay as above. Conditions: source organism: Bordetella pertussis.

Sequence	IC50
AEIAFYPKE	0.48 µM
AQVTVAGRY	3.25 µM
RETFCITTI	0.214 µM
TEAQGVQVR	19.9 µM

These sequences were tested against HLA-B*53:01 in the same assay as above. Conditions: source organism: Bordetella pertussis.

Sequence	IC50
FPTRTTAPG	0.894 µM
HANHYGTRI	52.1 µM
TAPVTSPAW	4.36 µM

The sequences below were run against HLA-B*57:01 in the same assay as above. Conditions: source organism: Bordetella pertussis.

Sequence	IC50
AARVAGDNY	32.3 µM
KATVTTVQV	35.2 µM
RARRALRQD	13.5 µM
RRFTHADGW	55.9 µM
RSGARATSL	21.9 µM
SVKVAKKLF	≥ 70.4 µM
